The target in one test is VPS35L (human) (UniProt Q7Z3J2). The test can be described thus: SEC; Retriever co-expressed in insect cells, affinity purification then size-exclusion chromatography (Superdex200, 25 mM HEPES pH 8.0, 300 mM NaCl, 2 mM β-mercaptoethanol, 4°C).
The target of test [1] is VPS29 (recombinant) (human) (UniProt Q9UBQ0). The test can be described thus: ITC; VPS35L peptides at 600 μM titrated into 20 μM VPS29, 100 mM Tris pH 7.4, 300 mM NaCl, 25°C, single site model.

Broadly, the stoichiometry N is a count of units in the complex or per binding partner. In general, Kd refers to a measure of binding affinity in units of concentration.

For the substance “3xStrepII-VPS26C (from UniProt O14972 1-297) (natural protein)”, the stoichiometry N with VPS35L (human) is 1.
Turning to “VPS35L (28-37) peptide (from UniProt Q7Z3J2 28-37)”, in test [1], the dissociation constant (Kd) turned out to be 6.8 µM.

(Values after article PMC10187114.)
